We go through 1 variant from IntAct's records for PubMed 19804755.

To fix the notation:
B1: DNA repair and telomere maintenance protein nbs1 (Schizosaccharomyces pombe (strain ATCC 38366 / 972)), O43070 (parent)
chain: MWIIEAEGDILKGKSRILFPGTYIVGRNVSDDSSHIQVISKSISKRHARFTILTPSEKDYFTGGPCEFEVKDLDTKFGTKVNEKVVGQNGDSYKEKDLKIQLGKCPFTINAYWRSMCIQFDNPEMLSQWASNLNLLGIPTGLRDSDATTHFVMNRQAGSSITVGTMYAFLKKTVIIDDSYLQYLSTVKESVIEDASLMPDALECFKNIIKNNDQFPSSPEDCINSLEGFSCAMLNTSSESHHLLELLGLRISTFMSLGDIDKELISKTDFVVLNNAVYDSEKISFPEGIFCLTIEQLWKIIIERNSRELISKEIERLKYATASNSTPQKIIQPQRHIQKNIVDDLFSVKKPLPCSPKSKRVKTLENLSIMDFVQPKQMFGKEPEGYLSNQSNNGSAQNKKSGDNSEKTKNSLKSSSKKSANTGSGQGKTKVEYVSYNSVDKGNSSPFKPLELNVVGEKKANAEVDSLPSENVQESEDDKAFEENRRLRNLGSVEYIRIMSSEKSNANSRHTSKYYSGRKNFKKFQKKASQKAPLQAFLSLSEHKKTEVFDQDDTDLEPVPRLMSKVESIPAGASSDKSGKSSISKKSSNSFKELSPKTNNDEDDEFNDLKFHF
partner: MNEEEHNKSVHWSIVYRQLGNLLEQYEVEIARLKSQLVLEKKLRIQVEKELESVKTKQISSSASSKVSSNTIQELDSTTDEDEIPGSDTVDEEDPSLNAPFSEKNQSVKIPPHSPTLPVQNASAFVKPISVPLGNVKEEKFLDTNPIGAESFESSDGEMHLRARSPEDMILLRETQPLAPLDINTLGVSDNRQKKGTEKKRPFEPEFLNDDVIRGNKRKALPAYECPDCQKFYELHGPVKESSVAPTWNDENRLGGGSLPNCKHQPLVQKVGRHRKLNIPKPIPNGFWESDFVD

The test covers variants of B1. As to conditions: with com1_schpo ctp1, O74986.
Take R27A;K45A: the “effect of a mutation on the interaction” value is “decreasing interaction”.
